Experimental data from the supplement of paper PMC12042874.
± gives the uncertainty stated by the source.

Assay: amyloid nucleation score (Sup35N fusion, yeast selection) (log enrichment); library NNK1; higher = more nucleation; inactive = no reads after selection
In short: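 Plasmid inserts were Illumina-sequenced at input and output from psi-negative yeast expressing Sup35N fused to peptides of 20 random codons. The yeast were induced with 100 μM copper sulfate for 24 hours and grown 7 days at 30°C on medium lacking adenine and uracil, and sequences with under 100 input reads were excluded. Nucleation score is the DiMSum log enrichment of output over input reads, centred on the mode score of non-aggregating sequences.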

Substance	amyloid nucleation score
VDQVQDNLKFEIGKYSYWYS	0.128 ± 0.27
VDRILFNVLAVSFDMELRSL	0.224 ± 0.24
VDSLITRSWVDHHNKYNHGI	0.635 ± 0.64
VDVYFTSAMLSRLGLVGAVA	0.862 ± 0.64
VECSCKLRLAASGGNYRGWG	2.3 ± 0.25
VEDENKDSVIKVEKLLPHNL	-0.342 ± 0.29
VEEAYER	-0.485 ± 0.5
VEGRVSEFGRLHMSCYTGLR	-0.076 ± 0.48
VELLIEFLSRLGWIGCRHVL	0.08 ± 0.86
VEMNFSFVGR	2.62 ± 0.23
VEVATPLTGSLQLPASYIMP	inactive
VFAFA	0.126 ± 0.48
VFASGAAGTKFWR	0.302 ± 0.27
VFAVERCDFSLRPNVMLVSY	1.08 ± 0.92
VFHAAVM	-0.192 ± 0.93
VFHSMC	0.761 ± 0.39
VFNVV	-0.605 ± 0.52
VFRALKRVISRTYCMISFLK	0.458 ± 0.79
VFRTLHSPSVSSGRWSSELS	-0.475 ± 0.5
VFSCLLHYIFKAMLGYSVCL	-0.155 ± 0.3
VFSCWKAVILIPVQGVLVQR	0.616 ± 0.41
VFTFLSMLRWVIFCNVVGVD	inactive

Substance	amyloid nucleation score
VFTHAFNMLCVFYTSQGLKR	5.35 ± 0.1
VFTSNGNDLPISRSELRLNL	inactive
VFVHFVSQWDFEATWT	0.27 ± 0.71
VFVICCKRREAG	-0.295 ± 0.34
VFVSCIILRRYFYMFLVGPF	0.752 ± 0.45
VFVVN	-0.557 ± 0.55
VFWVNFLFYYGSLLHSKGV	-1.05 ± 1
VFWWT	-0.575 ± 0.29
VGAFVSRVSLLDADGLLLGS	-0.09 ± 0.61
VGDVTGF	0.154 ± 0.95
VGEALYHESSGTVNLEILCS	inactive
VGLCYRGKWDGFLDKKVRWK	-1.73 ± 2.7
VGLTARHKCWVGTCRGGPRT	-0.711 ± 1.3
VGLVLKIHVYNYFMETAQQS	6.555 ± 0.053
VGNMRYL	-0.332 ± 0.5
VGNRRYNTSVMALSNQRNTR	0.636 ± 1
VGRGSGPRAQYMWLSKTEAG	-0.2 ± 0.47
VGRRNKVAWVKLRHEVRRCV	0.106 ± 0.52
VGSSNTTNKYPGFCCWRFDG	0.444 ± 0.53
VGTFTGV	-0.189 ± 0.43
VGVWLFCLAYWE	inactive
VGWFFMYVPSSSAVFSKFLN	inactive

Substance	amyloid nucleation score
VHNPSVNDLYFLVICCVYLF	0.484 ± 0.26
VHRRRIRQSAWVRGAVSTFR	-0.011 ± 0.4
VHSCFHFSNKGRLVWFPSFH	inactive
VHWRYWFVLISLDQRIGKA	0.199 ± 0.21
VIAFCSRPDC	0.425 ± 0.52
VIASSATGYIHR	2.46 ± 0.12
VIDEFLSMCRVNMMGGVCRV	2.28 ± 0.35
VIERFMAKRPGC	0.698 ± 0.68
VIFRDPGQRRLSC	-0.858 ± 2.1
VIGVGKMLGNNHYPLSDQGL	-0.05 ± 0.26
VIHYSGLSMVAVQ	-0.379 ± 0.49
VINCITRLDVQYRKHTPFAN	-0.382 ± 0.3
VISSSVWFFATMQDCWVGRQ	0.509 ± 0.69
VKESRCCSYGTVRSISQGLG	-0.512 ± 0.89
VKEWGTNSVLGSYTVAQEMS	0.096 ± 0.94
VKHFLSDMRLFIGPKIFMRC	4.49 ± 0.062
VKLCRACCYEYWRHHSPLGC	0.594 ± 0.43
VKLFSVNKNNMTVPSTALCS	5.969 ± 0.047
VKRLTRAVFCSFKSRVARSS	0.238 ± 0.58
VKRRVSDTHVSCVKGHGSVC	inactive
VKSNFLHSGKIGYTSAVGFG	-1.16 ± 1.9
VKSQCECHVSSFALFCWARD	3.85 ± 0.1

Substance	amyloid nucleation score
VKTNWLNWWLLNGLRASRCL	0.062 ± 0.58
VKTPTDRSYRLHGNFIGCWA	-0.576 ± 0.38
VKYSVENCMITWDVYMGASL	-0.561 ± 0.29
VLCLWISGLPVLCSVCDPLV	0.1 ± 0.45
VLCNFWMD	2.9 ± 0.17
VLCSMDSVGSSGASGIFTYM	-0.025 ± 0.4
VLDYGIVFNVVLLICIRTTE	4.87 ± 0.064
VLEDDSDWGSRFVRRGYIKT	1.15 ± 0.61
VLFAR	0.566 ± 0.48
VLFGTCCRVILLWSV	2.04 ± 0.43
VLFIWTLF	0.341 ± 0.26
VLGKCVNR	-0.366 ± 0.21
VLGLGRENSLRVNFYRLCKS	inactive
VLHFHVDDMDYNFFSW	0.578 ± 0.33
VLIINFLPVWWKTYLSMMIR	-0.256 ± 0.45
VLLACGIFKDPTSCFCMLSL	-0.432 ± 0.48
VLLVRSNKSKLDRHRDWSGK	0.466 ± 1.4
VLLYHNEDHWFCSRYYSSVS	inactive
VLQDSGIAAYKYSGSCDCSF	-1.07 ± 0.58
VLQRVQKPLLCMRVLDIYAW	-0.11 ± 0.43
